Kd data for three substances are collected here from publication PMC7004160.

Assay [1] deals with superfolder GFP [GFP: P42212]. Kind of assay: MST; sfGFP as the fluorescent antigen, photobody added in a dilution series; before and after photodeprotection (365 nm).
Assay [2] has as its target superfolder GFP [GFP: P42212]. Kind of assay: not stated; photobody 10, caged or photodeprotected, with purified sfGFP.

Broadly, the Kd is the constant that tells how readily two partners part at equilibrium. Take “anti-GFP ONBY-photobody (construct 4), GFP-enhancer nanobody with Y37ONBY, caged (VHH)”: the Kd in assay [1] is more than 10000 nM. Turning to “anti-GFP NPY-photobody (construct 5), GFP-enhancer nanobody with Y37NPY, caged (VHH)”, the Kd in assay [1] was 460 nM. On to “anti-GFP minimizer Y113ONBY-photobody (construct 10), caged (VHH)”, for which, in assay [2], the equilibrium dissociation constant (Kd) was determined as 2280 nM.
